These results are taken from doi:10.1101/859678 (bioRxiv, 2019).

The series concerns the molecule itself. Description: SEC.

B1: Arabidopsis thaliana Golgi anti-apoptotic protein 3 (AtGAAP3) (natural protein, UniProt Q9ZQX7-1 1-248, looked up)
chain: MYQWNLPYRKDDVETGVSSRRPLLYPAMHENPELRWGFIRKVYSIIAFQLLATVAVAATVVTVRPIALFFATTGLGLALYIVIIITPLIVLCPLYYYHQKHPVNYLLLGIFTLALAFVVGLTCAFTNGKVILESVILTSVVVLSLTLYTFWAARKGYDFNFLGPFLFGALTVLIFFALIQILFPLGRVSVMIYGCLVSIIFCGYIVYDTDNLIKRHTYDEYIWAAVSLYLDIINLFLYLLTVLRALQR
Turning to B1, the binding result is “binds”.
